In data set [1] the target is T1, GAPDH wild type (Homo sapiens, UniProt P04406 1-335). As to the kind of experiment: competition EMSA.
The target of data set [2] is T1, GAPDH wild type. The data set can be described thus: EMSA.
Data set [3] concerns the target T1, GAPDH wild type. As to the kind of experiment: competition EMSA. This is another data set of the same source. A general note: A gel shift assay detects complexes by their altered migration in electrophoresis.
Data set [4] has as its target T1, GAPDH wild type. As to the kind of experiment: competition EMSA. This is another data set of the same source.

Read-outs that look alike come from different tables or passages of the source.

We go through seven molecules from article PMC2789664.

As a reminder, the Kd is the equilibrium constant for the complex coming apart. A lower Kd goes with higher affinity.

T1 sequence (P04406 whole entry): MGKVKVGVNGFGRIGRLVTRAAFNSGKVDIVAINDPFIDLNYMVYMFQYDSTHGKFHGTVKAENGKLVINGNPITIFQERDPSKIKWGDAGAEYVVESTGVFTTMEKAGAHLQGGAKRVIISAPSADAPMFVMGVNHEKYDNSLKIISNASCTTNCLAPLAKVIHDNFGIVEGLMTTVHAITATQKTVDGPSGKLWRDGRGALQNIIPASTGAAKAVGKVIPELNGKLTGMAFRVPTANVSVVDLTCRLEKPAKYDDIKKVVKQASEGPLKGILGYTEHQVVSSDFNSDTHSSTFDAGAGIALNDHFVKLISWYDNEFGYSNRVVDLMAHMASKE

Regarding ATAGGGATAGGGATAGGG (ssDNA) [ss-(ATAGGG)3], the binding result in the data set with GAPDH wild type [1] was “no binding”. With TTAGGGTTAGGGTTAGGG (ssDNA) [ss-(TTAGGG)3], binding in the data set with GAPDH wild type [2] was put at a Kd of 70 ± 5 nM. On to TTTGGGTTTGGGTTTGGG (ssDNA) [ss-(TTTGGG)3], for which, in the data set with GAPDH wild type [3], the binding result was “binds”. As for AGATGTAGCAATAGTAGT (ssDNA) [control 18-mer], the binding result with GAPDH wild type [4] was “no binding”. As for TTAGGCTTAGGCTTAGGC (ssDNA) [ss-(TTAGGC)3], the binding result in the data set with GAPDH wild type [1] was “no binding”. Still for that read-out and setting: the value for TTAGCGTTAGCGTTAGCG (ssDNA) [ss-(TTAGCG)3] was “no binding”.

With AGGGTTAGGGTTAGGGTT (ssDNA) [ss-(AGGGTT)3], the Kd with GAPDH wild type [2] amounted to 45 ± 5 nM.
